Results from US20170233494.

Target: mouse MBL (mannose-binding lectin of mouse serum)

B1: recombinant mouse MASP-2 (rMASP-2) (protein)
chain: SKWPEPVFGRLVSPGFPEKYADHQDRSWTLTAPPGYRLRLYFTHFDLELSYRCEYDFVKLSSGTKVLATLCGQESTDTEQAPGNDTFYSLGPSLKVTFHSDYSNEKPFTGFEAFYAAEDVDECRVSLGDSVPCDHYCHNYLGGYYCSCRAGYILHQNKHTCSALCSGQVFTGRSGYLSSPEYPQPYPKLSSCTYSIRLEDGFSVILDFVESFDVETHPEAQCPYDSLKIQTDKGEHGPFCGKTLPPRIETDSHKVTITFATDESGNHTGWKIHYTSTARPCPDPTAPPNGSISPVQATYVLKDRFSVFCKTGFELLQGSVPLKSFTAVCQKDGSWDRPMPECSIIDCGPPDDLPNGHVDYITGPQVTTYKAVIQYSCEETFYTMSSNGKYVCEADGFWTSSKGEKLPPVCEPVCGLSTHTIGGRIVGGQPAKPGDFPWQVLLLGQTTAAAGALIHDNWVLTAAHAVYEKRMAASSLNIRMGILKRLSPHYTQAWPEEIFIHEGYTHGAGFDNDIALIKLKNKVTINGSIMPVCLPRKEAASLMRTDFTGTVAGWGLTQKGLLARNLMFVDIPIADHQKCTTVYEKLYPGVRVSANMLCAGLETGGKDSCRGDSGGALVFLDNETQRWFVGGIVSWGSINCGAAGQYGVYTKVINYIPWNENIISNF
- C4 deposition on mannan-coated wells (sMAP-/- mouse serum): the amount of C4 was restored by up to 46% of that of wild-type serum in a dose-dependent manner and reached a plateau
